Key:
[1] = target: cynomolgus CD28 on cynomolgus T cells (cynomolgus) (UniProt Q0PDN3); experiment: flow cytometry on cynomolgus CD2+/CD4+ T cells, Alexa647 read-out
[2] = target: human CD28 on cells (human) (UniProt P10747); experiment: flow cytometry on human CD2+/CD4+ T cells, Alexa647 read-out
[3] = target: human CD28 on cells (human) (UniProt P10747); experiment: flow cytometry on human CD2+/CD8+ T cells, Alexa647 read-out
[4] = target: cynomolgus CD28 on cynomolgus T cells (cynomolgus) (UniProt Q0PDN3); experiment: flow cytometry on cynomolgus CD2+/CD8+ T cells, Alexa647 read-out

EC50 (read off the curve) [1]: 0.05 nM
EC50 (read off the curve) [2]: 0.05 nM
EC50 (read off the curve) [3]: 0.05 nM
EC50 (read off the curve) [4]: 0.05 nM
Substance: REGN5705 (antibody)
